Measured values: PMC7528686 (Molecules and Cells, 2020)

Molecular target: the molecule itself
Assay: SEC

B1: CafA (residues 75-287), β-class carbonic anhydrase of Aspergillus fumigatus (enzyme, UniProt A4UTP0 75-287, looked up)
chain: DSLSDKFSAALAKNKEWAAKCSQEHPELLPTLAVGQHPEILWIGCSDSRCPETTILGLLPGDVFTHRNIANVIHPADLSSGAVIEFAVRHLRVKHVVICGHTKCGGVAAALGNKGLGILDPWLIPLRQLREQHLAELQSLSRDEAVVRLAELNVKEGLKALTQKSVVLEAMQERGLQVHGLIYDVGSGFLRQLDAAEPEEALKARLTSFKTDA
  stoichiometry N: 4
